# Experimental data taken from US20250276090A1, “Methods and Compositions for Genetically Modifying a Cell” (Intellia Therapeutics, Inc., priority 2022, published 2025).
# Strand notation (5' to 3'): a small letter for the sugar, then the base; units joined by * are phosphorothioate-linked, units joined directly phosphodiester-linked; [ ] holds rarer units or linkages, { } end groups; capitals alone tell only the bases. m = 2'-O-methyl; r = 2'-OH (RNA)
# B1: G013565: AAVS1 SpyCas9 guide RNA, guide sequence SEQ ID NO: 262, chr19:55115850-55115870 (nucleic acid)
# guide: mG*mG*mA*rUrCrCrUrGrUrGrUrCrCrCrCrGrArGrCrUrGrUrUrUrUrArGrAmGmCmUmAmGmAmAmAmUmAmGmCrArArGrUrUrArArArArUrArArGrGrCrUrArGrUrCrCrGrUrUrArUrCrAmAmCmUmUmGmAmAmAmAmAmGmUmGmGmCmAmCmCmGmAmGmUmCmGmGmUmGmCmU*mU*mU*mU
# B2: G013520: AAVS1 SpyCas9 guide RNA, guide sequence SEQ ID NO: 254, chr19:55115623-55115643 (nucleic acid)
# guide: mG*mA*mG*rArGrArUrGrGrCrUrCrCrArGrGrArArArUrGrUrUrUrUrArGrAmGmCmUmAmGmAmAmAmUmAmGmCrArArGrUrUrArArArArUrArArGrGrCrUrArGrUrCrCrGrUrUrArUrCrAmAmCmUmUmGmAmAmAmAmAmGmUmGmGmCmAmCmCmGmAmGmUmCmGmGmUmGmCmU*mU*mU*mU
# B3: G000562: AAVS1 SpyCas9 guide RNA, guide sequence SEQ ID NO: 251, chr19:55115695-55115715 (nucleic acid)
# guide: mC*mC*mA*rArUrArUrCrArGrGrArGrArCrUrArGrGrArGrUrUrUrUrArGrAmGmCmUmAmGmAmAmAmUmAmGmCrArArGrUrUrArArArArUrArArGrGrCrUrArGrUrCrCrGrUrUrArUrCrAmAmCmUmUmGmAmAmAmAmAmGmUmGmGmCmAmCmCmGmAmGmUmCmGmGmUmGmCmU*mU*mU*mU
# B4: G013584: AAVS1 SpyCas9 guide RNA, guide sequence SEQ ID NO: 264, chr19:55115949-55115969 (nucleic acid)
# guide: mC*mC*mC*rUrGrGrArArGrArUrGrCrCrArUrGrArCrArGrUrUrUrUrArGrAmGmCmUmAmGmAmAmAmUmAmGmCrArArGrUrUrArArArArUrArArGrGrCrUrArGrUrCrCrGrUrUrArUrCrAmAmCmUmUmGmAmAmAmAmAmGmUmGmGmCmAmCmCmGmAmGmUmCmGmGmUmGmCmU*mU*mU*mU
# B5: G013562: AAVS1 SpyCas9 guide RNA, guide sequence SEQ ID NO: 259, chr19:55115834-55115854 (nucleic acid)
# guide: mA*mA*mU*rArUrArArGrGrUrGrGrUrCrCrCrArGrCrUrGrUrUrUrUrArGrAmGmCmUmAmGmAmAmAmUmAmGmCrArArGrUrUrArArArArUrArArGrGrCrUrArGrUrCrCrGrUrUrArUrCrAmAmCmUmUmGmAmAmAmAmAmGmUmGmGmCmAmCmCmGmAmGmUmCmGmGmUmGmCmU*mU*mU*mU
# B6: G013515: AAVS1 SpyCas9 guide RNA, guide sequence SEQ ID NO: 252, chr19:55115588-55115608 (nucleic acid)
# guide: mC*mC*mA*rUrCrGrUrArArGrCrArArArCrCrUrUrArGrGrUrUrUrUrArGrAmGmCmUmAmGmAmAmAmUmAmGmCrArArGrUrUrArArArArUrArArGrGrCrUrArGrUrCrCrGrUrUrArUrCrAmAmCmUmUmGmAmAmAmAmAmGmUmGmGmCmAmCmCmGmAmGmUmCmGmGmUmGmCmU*mU*mU*mU
# B7: G013519: AAVS1 SpyCas9 guide RNA, guide sequence SEQ ID NO: 253, chr19:55115616-55115636 (nucleic acid)
# guide: mG*mC*mA*rArGrGrArGrArGrArGrArUrGrGrCrUrCrCrGrUrUrUrUrArGrAmGmCmUmAmGmAmAmAmUmAmGmCrArArGrUrUrArArArArUrArArGrGrCrUrArGrUrCrCrGrUrUrArUrCrAmAmCmUmUmGmAmAmAmAmAmGmUmGmGmCmAmCmCmGmAmGmUmCmGmGmUmGmCmU*mU*mU*mU
# B8: G013582: AAVS1 SpyCas9 guide RNA, guide sequence SEQ ID NO: 263, chr19:55115951-55115971 (nucleic acid)
# guide: mC*mC*mU*rGrUrCrArUrGrGrCrArUrCrUrUrCrCrArGrGrUrUrUrUrArGrAmGmCmUmAmGmAmAmAmUmAmGmCrArArGrUrUrArArArArUrArArGrGrCrUrArGrUrCrCrGrUrUrArUrCrAmAmCmUmUmGmAmAmAmAmAmGmUmGmGmCmAmCmCmGmAmGmUmCmGmGmUmGmCmU*mU*mU*mU
# B9: G013523: AAVS1 SpyCas9 guide RNA, guide sequence SEQ ID NO: 255, chr19:55115637-55115657 (nucleic acid)
# guide: mG*mG*mU*rGrArCrArCrArCrCrCrCrCrArUrUrUrCrCrGrUrUrUrUrArGrAmGmCmUmAmGmAmAmAmUmAmGmCrArArGrUrUrArArArArUrArArGrGrCrUrArGrUrCrCrGrUrUrArUrCrAmAmCmUmUmGmAmAmAmAmAmGmUmGmGmCmAmCmCmGmAmGmUmCmGmGmUmGmCmU*mU*mU*mU
# B10: G013563: AAVS1 SpyCas9 guide RNA, guide sequence SEQ ID NO: 260, chr19:55115835-55115855 (nucleic acid)
# guide: mA*mU*mA*rUrArArGrGrUrGrGrUrCrCrCrArGrCrUrCrGrUrUrUrUrArGrAmGmCmUmAmGmAmAmAmUmAmGmCrArArGrUrUrArArArArUrArArGrGrCrUrArGrUrCrCrGrUrUrArUrCrAmAmCmUmUmGmAmAmAmAmAmGmUmGmGmCmAmCmCmGmAmGmUmCmGmGmUmGmCmU*mU*mU*mU
# B11: G013533: AAVS1 SpyCas9 guide RNA, guide sequence SEQ ID NO: 256, chr19:55115691-55115711 (nucleic acid)
# guide: mA*mG*mA*rCrCrCrArArUrArUrCrArGrGrArGrArCrUrGrUrUrUrUrArGrAmGmCmUmAmGmAmAmAmUmAmGmCrArArGrUrUrArArArArUrArArGrGrCrUrArGrUrCrCrGrUrUrArUrCrAmAmCmUmUmGmAmAmAmAmAmGmUmGmGmCmAmCmCmGmAmGmUmCmGmGmUmGmCmU*mU*mU*mU
# B12: G013559: AAVS1 SpyCas9 guide RNA, guide sequence SEQ ID NO: 258, chr19:55115823-55115843 (nucleic acid)
# guide: mC*mC*mG*rGrCrCrCrUrGrGrGrArArUrArUrArArGrGrGrUrUrUrUrArGrAmGmCmUmAmGmAmAmAmUmAmGmCrArArGrUrUrArArArArUrArArGrGrCrUrArGrUrCrCrGrUrUrArUrCrAmAmCmUmUmGmAmAmAmAmAmGmUmGmGmCmAmCmCmGmAmGmUmCmGmGmUmGmCmU*mU*mU*mU
# B13: G013564: AAVS1 SpyCas9 guide RNA, guide sequence SEQ ID NO: 261, chr19:55115836-55115856 (nucleic acid)
# guide: mU*mA*mU*rArArGrGrUrGrGrUrCrCrCrArGrCrUrCrGrGrUrUrUrUrArGrAmGmCmUmAmGmAmAmAmUmAmGmCrArArGrUrUrArArArArUrArArGrGrCrUrArGrUrCrCrGrUrUrArUrCrAmAmCmUmUmGmAmAmAmAmAmGmUmGmGmCmAmCmCmGmAmGmUmCmGmGmUmGmCmU*mU*mU*mU
# Test system: AAVS1
# Assay: GFP insertion at AAVS1 in T cells with SpyCas9 RNP and gapped AAV templates, flow cytometry (Example 6)
# Type: cell-based, human
# Settings: day 7 post-editing
# Method: AAVS1 guide RNAs were designed and screened to identify insertion SpyCas9 guides using a series of gapped AAV GFP templates (A, B, C, D, OG) each designed for a subset of the guide RNAs. Insertion efficacy in T cells was examined by assessing GFP expression by flow cytometry. The percentage of T cells positive for green fluorescent protein (“% GFP+”) was assayed by flow cytometry, following AAVS1 editing by mRNA and AAV delivery.
# Healthy human donor apheresis was obtained commercially (Hemacare) from two donors (#110042863 and #110040377) and cells were washed and resuspended in MACS Buffer containing 2 mM EDTA and 0.5% Fetal Bovine Serum (FBS) in PBS. Cells were washed twice by centrifugation followed by CD3 negative selection using Easy Sep Human T Cell Isolation Kit (Stemcell, Cat. 100-0695) and separated using Easy Sep Magnets (Stemcell, Cat.18000). T cells were aliquoted and cryopreserved for future use in Cryostor® CS10 (StemCell Technologies Cat. 07930).
# AAVS1 guide RNAs were assessed for insertion efficacy in T cells by assessing GFP expression by flow cytometry. The percentage of T cells positive for green fluorescent protein (“% GFP+”) was assayed by flow cytometry, following AAVS1 editing by mRNA and AAV delivery.
# AAVS1 targeting sgRNAs corresponding to the flanking homology regions of Gap Templates A, B, C, D, & OG (SEQ ID NOs: 299-303) were removed from their storage plates and denatured for 2 minutes at 95° C. before cooling at room temperature for 10 minutes. RNP mixture of 20 μM sgRNA and 10 μM Cas9-NLS protein (SEQ ID NO: 296) was prepared and incubated at 25° C. for 10 minutes. 2.5 μL of RNP mixture was combined with 250,000 cells in […] P3 electroporation Buffer (Lonza). 22 μL of RNP/cell mix was transferred to the corresponding wells of a Lonza shuttle 96-well electroporation plate. Cells were electroporated in duplicate with the manufacturer's pulse code. T cell media described above without any cytokines was added to the cells immediately post electroporation. T cells were rested for 10 minutes at 37° C. Gap Template AAVs were prepared in 48 well plates (Corning, Cat.353078)) with T cell media described above containing 2× cytokines, 400 U/mL recombinant human interleukin-2 (Peprotech, Cat. 200-02), 10 ng/ml recombinant human interleukin 7 (Peprotech, Cat. 200-07), and 10 ng/ml recombinant human interleukin 15 (Peprotech, Cat. 200-15) cytokines. The multiplicity of infection (MOI) of AAVs was 3×10^^5. AAVs were added to the T cells within 15 minutes post electroporation and incubated for 48 hours at 37° C. AAV-6 vectors encoded AAVS1 Template A, B, C, D or OG. Two days post-electroporation, cells were split 1:2 in 48 well plates replenished with T cell media with 1× cytokines as described above. sgRNAs were tested each with AAV constructs and gapped template.
# On day 7 post-editing, cells were phenotyped by flow cytometry to determine GFP expression to confirm integration of AAV at their GAP template site. Briefly, T cells were washed in FACS buffer containing 2 mM EDTA (Invitrogen, Cat.15575020) and 1% FBS in PBS followed by re-suspending in FACS buffer containing 1:10,000 dilution of DAPI (Biolegend, Cat.422801) nuclear stain. Cells were then processed on a Cytoflex flow cytometer (Beckman Coulter) and analyzed using the FlowJo software package. T cells were gated based on size, shape, viability, and GFP expression. Values that were not determined by the flow cytometer were denoted as “ND”. Table 18 and FIGS. 8A-8B show mean percentage of T cells positive for GFP expression.
Molecule,"Mean percentage of T cells positive for GFP expression (Donor 1, Template B) [%]","Mean percentage of T cells positive for GFP expression (Donor 2, Template B) [%]","Mean percentage of T cells positive for GFP expression (Donor 1, Template D) [%]","Mean percentage of T cells positive for GFP expression (Donor 2, Template D) [%]","Mean percentage of T cells positive for GFP expression (Donor 1, Template A) [%]","Mean percentage of T cells positive for GFP expression (Donor 2, Template A) [%]",also measured
B1,63.50,65.00,,,,,
B2,,,71.80,72.20,,,
B3,34.00,32.75,29.65,27.50,30.60,41.20,"Mean percentage of T cells positive for GFP expression (Donor 1, Template C): 57.95%; Mean percentage of T cells positive for GFP expression (Donor 1, Template OG): 41.75%; Mean percentage of T cells positive for GFP expression (Donor 2, Template C): 59.10%; Mean percentage of T cells positive for GFP expression (Donor 2, Template OG): 37.80%"
B4,,,,,69.15,62.95,
B5,63.60,65.40,,,65.75,62.35,
B6,,,,,,,"Mean percentage of T cells positive for GFP expression (Donor 1, Template C): 61.15%; Mean percentage of T cells positive for GFP expression (Donor 2, Template C): 60.95%"
B7,,,73.35,72.10,,,
B8,,,,,66.30,61.00,
B9,,,70.50,72.05,,,
B10,69.15,71.35,,,73.15,69.40,
B11,,,,,,,"Mean percentage of T cells positive for GFP expression (Donor 1, Template C): 65.65%; Mean percentage of T cells positive for GFP expression (Donor 2, Template C): 65.15%"
B12,65.55,64.05,,,,,
B13,61.50,63.45,,,65.95,61.20,
